Assay results taken from patent US20200000929A1.

Target: NPY2 receptor on HEK293/hNPY2R cells (human) (UniProt P49146)
Assay: cell-based or functional assay

Sequence of NPY2 receptor on HEK293/hNPY2R cells (human) (P49146 whole entry): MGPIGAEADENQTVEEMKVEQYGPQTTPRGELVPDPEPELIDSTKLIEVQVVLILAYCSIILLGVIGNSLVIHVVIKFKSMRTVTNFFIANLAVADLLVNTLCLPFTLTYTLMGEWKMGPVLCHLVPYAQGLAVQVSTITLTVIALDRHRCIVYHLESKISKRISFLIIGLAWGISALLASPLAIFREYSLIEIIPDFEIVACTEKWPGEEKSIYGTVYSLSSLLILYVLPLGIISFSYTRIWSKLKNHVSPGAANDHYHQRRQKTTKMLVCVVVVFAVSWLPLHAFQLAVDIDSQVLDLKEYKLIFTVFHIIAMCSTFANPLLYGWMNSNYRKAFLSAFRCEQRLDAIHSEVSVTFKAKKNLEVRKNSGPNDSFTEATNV
Sequence of PYY(3-36) wild-type (peptide; modification not given) (chain, as listed by the source): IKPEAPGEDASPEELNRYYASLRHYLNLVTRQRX

Row | Substance | EC50 [nM], day 1, cAMP assay (inhibition of Forskolin stimulated cAMP accumulation in HEK293/hNPY2R cells) [nM] | EC50 [nM], day2, cAMP assay (inhibition of Forskolin stimulated cAMP accumulation in HEK293/hNPY2R cells) [nM]
1 | PYY(3-36) wild-type (peptide; modification not given) | 0.09 | 0.1
2 | moPYY, Y2receptor specific modified analog of PYY(3-36): Ac-Ile-Lys-Pqa-Arg-His-Tyr-Leu-Asn-Trp-Val-Thr-Arg-Gln-(NMe)-Arg-Tyr-NH2 (peptide) | 0.14 | 0.15
